System: POTH1
Test: Yeast two-hybrid interaction with POTH1 (nutritional selection, beta-galactosidase)
Assay type: cell-based, potato
Conditions: yeast strain AH109, nutritional markers and lacZ
From the text: The Matchmaker two-hybrid system (Clontech, CA) was used for the yeast two-hybrid screen. Yeast transformation and plasmid rescue into DH5-a E. coli cells were according to the manufacturer's instructions. Full-length POTH1 was cloned into the pBridge (Clontech, CA) vector and used as bait to screen the potato (S. tuberosum ‘Desireé’) stolon cDNA library in pAD-GAL4-2.1 (Stratagene, Calif.). Positive interactions were confirmed by cotransforming yeast strain AH109 with each purified pAD plasmid and pBridge: POTH1 and plating on -leucine/-tryptophan (transformation control) and -leucine/-tryptophan/-histidine/-adenine (selection) nutrient medium. Induction of the AH109 reporter gene, lacZ, was measured with a yeast β-galactosidase assay kit (Pierce Chemicals). β-galactosidase activity (FIG. 9B) was determined from a known density of yeast cells and calculated as 1000×OD420/time of color reaction (minutes)×volume of yeast culture (ml)×OD600.
The StBEL-05 deletion constructs were amplified by PCR, then cloned into the vector, pGAD, in-frame with the GAL4 activation domain. POTH1 deletion constructs were amplified by PCR, and cloned into pBridge (Clontech) in-frame with the GAL4 binding domain. Sequencing of selected cDNAs and constructs was performed at the Iowa State University DNA Facility. For deletion analysis, modified constructs of POTH1 were cloned into the pBridge vector for fusion with the DNA-binding domain of GAL4 (FIG. 10A). For StBEL-05, constructs were cloned into the pGAD vector for fusion with the activating domain of GAL4 (FIG. 10B). Deletion constructs were made from both the amino and carboxy termini. These mutants were then tested for interaction in the yeast two-hybrid system by cotransforming into yeast strain AH109 with the corresponding full-length partner (StBEL-05 in pGAL4 or POTH1 in pBridge). All constructs were sequenced to verify that they were in-frame. Positive interactions were verified for lacZ induction by using a β-galactosidase assay (Pierce Chemical Company). For POTH1, seven deletion constructs were tested (FIG. 10A). For the BEL TFs, a fusion construct of StBEL-05 (653 aa of StBEL-05 sequence) and nine deletion constructs were tested (FIG. 10B).

Chain of POTH1 (as listed by the source): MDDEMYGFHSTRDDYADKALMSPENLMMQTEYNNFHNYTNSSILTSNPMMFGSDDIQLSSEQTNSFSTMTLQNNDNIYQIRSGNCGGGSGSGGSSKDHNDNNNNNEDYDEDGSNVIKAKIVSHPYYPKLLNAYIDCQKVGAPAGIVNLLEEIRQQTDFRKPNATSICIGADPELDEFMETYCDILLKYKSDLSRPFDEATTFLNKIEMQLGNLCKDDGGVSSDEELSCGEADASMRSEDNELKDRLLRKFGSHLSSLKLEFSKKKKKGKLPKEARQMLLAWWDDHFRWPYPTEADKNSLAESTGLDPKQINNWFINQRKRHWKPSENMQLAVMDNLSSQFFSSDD

| interaction with POTH1 | Molecule |
| --- | --- |
| showed selective interaction | StBEL-11: BEL transcription factor from Solanum tuberosum, SEQ ID NO:4 (protein, listed as Solanum tuberosum) MTFRSSLPLDLREISTTNHQVGILSSSPLPSPGTNTNNINHTRGLGASSSFSISNGMILGSKYLKVAQDLLDEVVNVGKNIKLSDGLESGAKEKHKLDNELISLASDDVESSSQKNSGVELTTAQRQELQMKKAKLVSMLDEVDQRYRQYHHQMQMIATSFEQTTGIGSSKSYTQLALHTISKQFRCLKDAISGQIKDTSKTLGEEENIGGKIEGSKLKFVDHHLRQQRALQQLGMMQTNAWKPQRGLPERAVSVLRAWLFEHFLHPYPKDSDKIILAKQTGLTRSQVSNWFINARVRLWKPMVEEMYMEEVKKNNQEQNIEPNNNEIVGSKSSVPQEKLPISSNIIHNASPNDISTSTISTSPTGGGGSIPTQTVAGFSFIRSLNMENIDDQRNNKKARNEMQNCSTSTILSMEREIINKVVQDETIKSEKFNNTQTRECYSLMTPNYTMDDQFGTRFNNQNHEQLATTTTFHQGNGHVSLTLGLPPNSENQHNYIGLENHYNQPTHHPNISYENIDFQSGKRYATQLLQDFVS |
| showed selective interaction | StBEL-30: BEL transcription factor from Solanum tuberosum, SEQ ID NO:14 (protein, listed as Solanum tuberosum) MATYFPSPNNQRDADQTFQYFRQSLPESYSEASNAPENMMVFMNYSSSGAYSDMLTGTSQQQHNCIDIPSIGATPFNTSQQEILSNLGGSQMGIQDFSSWRDSRNEMLADNVFQVAQNVQGQGLSLSLGSNIPSGIGISHVQSQNPNQGGGFNMSFGDGDNSQPKEQRNADYFPPDNPGRDLDAMKGYNSPYGTSSIARTIPSSKYLKAAQYLLDEVVSVRKAIKEQNSKKELTKDSRESDVDSKNISSDTPANGGSNPHESKNNQSELSPTEKQEVQNKLAKLLSMLDEIDRRYRQYYHQMQIVVSSFDVVAGEGAAKPYTALALQTISRHFRCLRDAICDQIRASRRSLGEQDASENSKAIGISRLRFVDHHIRQQRALQQLGMMQQHAWRPQRGLPESSVSVLRAWLFEHFLHPYPKDSDKIMLARQTGLTRSQVSNWFINARVRLWKPMVEEMYKEEAGDAKIDSNSSSDVAPRLATKDSKVEERGELHQNAASEFEQYNSGQILESKSNHEADVEMEGASNAETQSQSGMENQTGEPLPAMDNCTLFQDAFVQSNDRFSEFGSFGSGNVLPNGVSLTLGLQQGEGSNLPMSIETHVSYVPLRADDMYSTAPTTMVPETAEFNCLDSGNRQQPFWLLPSAT |
| showed selective interaction | StBEL-13: BEL transcription factor from Solanum tuberosum, SEQ ID NO:6 (protein, listed as Solanum tuberosum) MVMGGGASSQQLGYAKNHTPNVAESMQLFLMNPQPRSPSPSPPNSTSSTLHMLLPNPSSTSTLQGFPNPAEGSFGQFITWGNGGASAATATHHLNAQNEIGGVNVVESQGLSLSLSSSLQHKAEELQMSGEAGGMMFFNQGGSSTSGQYRYKNLNMGGSGVSPNIHQVHVGYGSSLGVVNVLRNSKYAKAAQELLEEFCSVGRGKLKKTNNKAAANNPNTNPSGANNEASSKDVPTLSAADRIEHQRRKVKLLSMVDEVDRRYNHYCEQMQMVVNSFDLVMGFGTAVPYTALAQKAMSRHFRCLKDAIGAQLKQSCELLGEKDAGNSGLTKGETPRLKMLEQSLRQQRAFHQMGMMEQEAWRPQRGLPERSVNILRAWLFEHFLHPYPSDADKHLLARQTGLSRNQVSNWFINARVRLWKPMVEDMYQQEAKDEDGDGDEKSQSQNSGNNIIAQTPTPNSLTNTSSTNMTTTTAPTTTTALAAAETGTAATPITVTSSKRSQINATDSDPSLVAINSFSENQATFPTNIHDPDDCRRGNLSGDDGTTTHDHMGSTMIRFGTTAGDVSLTLGLRHAGNLPENTHFFG |
| showed selective interaction | StBEL-22: BEL transcription factor from Solanum tuberosum, SEQ ID NO:10 (protein, listed as Solanum tuberosum) TSVYETAGLLSEMFNFQTTSTAATELLQNQLSNNYRHPNQQPHHQPPTREWFGNRQEIVVGGSLQVTFGDTKDDVNAKVLLSNRDSVTDYYQRQHNQVPSINTAESMQLFLMNPQPSSPSQSTPSTLHQGFSSPVGGHFSQFMCGGASTSSNPIGGVNVIDQGQGLSLSLSSTLQHLEASKVEDLRMNSGGEMLFFNQESQNHHNIGFGSSLGLVNVLRNSKYVKATQELLEEFCCVGKGQLFKKINKVSRNNNTSTSPIINPSGSNNNNSSSSKAIIPPNLSTAERLDHQRRKVKLLSMLDEVEKRYNHYCEQMQMVVNSFDLVMGFGAAVPYTALAQKAMSRHFKCLKDGVAAQLKKTCEALGEKDASSSSGLTKGETPRLKVLEQSLRQQRAFQQMGMMEQEAWRPQRGLPERSVNILRAWLFEHFLHPYPSDADKHLLARQTGLSRNQVANWFINARVRLWKPMVEEMYQREVNEDDVDDMQENQNSTNTQIPTPNIIITTNSNITETKSAATATIASDKKPQINVSEIDPSIVAMNTHYSSSMPTQLTNFPTIQDESDHILYRRSGAEYGTTNMASNSEIGSNMITFGTTTASDVSLTLGLRHAGNLPENTHFSG |
| showed selective interaction | StBEL-14: BEL transcription factor from Solanum tuberosum, SEQ ID NO:8 (protein, listed as Solanum tuberosum) MVNHQLQNFETNPEMYNLSSTTSSMDQMIGFPPNNNNPHHVLWKGNFPNKINGVDDDDHGPSSSKNIISEQFYQHGSHENMLTTTTTHHDDHQGSWHHDNNRTLLVDDPSMRCVFPCEGNERPSHGLSLSLCSSNPSSIGLQSFELRHQDLQQGLIHDGFLGKSTNIQQGYFHHHHQVRDSKYLGPAQELLSEFCSLGIKKNNDHSSSKVLLKQHESTASTSKKQLLQSLDLLELQKRKTKLLQMLEEVDRRYKHYCDQMKAVVSSFEAVAGNGAATVYSALASRAMSRHFRCLRDGIVAQIKATKMAMGEKDSTSTLIPGSTRGETPRLRLLDQTLRQQKAFQQMNMMETHPWRPQRGLPERSVSVLRAWLFEHFLHPYPSDVDKHILARQTGLSRSQVSNWFINARVRLWKPMVEEMYLEETKEEENVGSPDGSKALIDDMTIHQSHIDHHQADQKPNLVRIDSECISSIINHQPHEKNDQNYGVIRGGDQSFGAIELDFSTNIAYGTSGGDHHHHGGGVSLTLGLQQHGGSGGSSMGLTTFSSQPSHNQSSLFYPRDDDQVQYSSLLDSENQNLPYRNLDGGTTSS |
| showed selective interaction | StBEL-29: BEL transcription factor from Solanum tuberosum, SEQ ID NO:12 (protein, listed as Solanum tuberosum) QGLSLSLSSSQQPGFGNFTAARELVSSPSGSASASGIQQQQQQQQSISSVPLSSKYMKAAQELLDEVVNVGKSMKSTNSTDVVVNNDVKKSKNMGDMDGQLDGVGADKDGAPTTELSTGERQEIQMKKAKLVNMLDEVEQRYRHYHHQMQSVIHWLEQAAGIGSAKTYTALALQTISKQFRCLKDAIIGQIRSASQTLGEEDSLGGKIEGSRLKFVDNQLRQQRALQQLGMIQHNAWRPQRGLPERAVSVLRAWLFEHFLHPYPKDSDKMMLAKQTGLTRSQVSNWFINARVRLWKPMVEEMYLEEIKEHEQNGLGQEKTSKLGEQNEDSTTSRSIATQDKSPGSDSQNKSFVSKQDNHLPQHNPASPMPDVQRHFHTPIGMTIRNQSAGFNLIGSPEIESINITQGSPKKPRNNEMLHSPNSIPSINMDVKPNEEQMSMKFGDDRQDRDGFSLMGGPMNFMGGFGAYPIGEIARFSTEQFSAPYSTSGTVSLTLGLPHNENLSMSATHHSFLPIPTQNIQIGSEPNHEFGSLNTPTSAHSTSSVYETFNIQNRKRFAAPLLPDFVA |
